Experiment [1] deals with T1, recombinant human IL-17F (SEQ ID NO: 77) (human, UniProt Q96PD4 31-163).
T1 construct: homodimer; also called huIL-17F; rhuIL-17F
T1 sequence: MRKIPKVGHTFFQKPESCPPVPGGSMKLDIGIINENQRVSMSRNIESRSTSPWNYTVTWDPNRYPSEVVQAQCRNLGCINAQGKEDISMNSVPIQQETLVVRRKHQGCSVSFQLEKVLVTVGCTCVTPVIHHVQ
The experiment can be described thus: ELISA, coated antigen. Background: In an ELISA, binding on a coated surface is turned into a signal by an enzyme label.

Experiment [2] concerns the target T2, human IL-17A (construct not stated) (human, UniProt Q16552 24-155, limits assumed).
T2 sequence: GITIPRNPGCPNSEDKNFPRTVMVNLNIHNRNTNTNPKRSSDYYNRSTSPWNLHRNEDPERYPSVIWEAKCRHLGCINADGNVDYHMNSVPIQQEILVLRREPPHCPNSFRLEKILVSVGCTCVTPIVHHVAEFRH
Nature of the experiment: cell-based or functional assay.

Experiment [3] deals with T3, recombinant human IL-17D (R&D Systems Cat#1504IL/CF) (human, UniProt Q8TAD2 18-202, limits assumed).
T3 construct: also called huIL-17D; hu IL-17D
T3 sequence (looked up): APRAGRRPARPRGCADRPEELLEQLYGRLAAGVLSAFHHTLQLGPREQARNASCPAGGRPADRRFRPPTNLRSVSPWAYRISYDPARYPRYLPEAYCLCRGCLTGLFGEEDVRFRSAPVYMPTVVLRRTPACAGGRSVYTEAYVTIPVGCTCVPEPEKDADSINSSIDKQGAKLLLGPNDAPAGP
The experiment can be described thus: ELISA, coated antigen, Ab 1 µg/ml.

Experiment [4] deals with T4, recombinant human IL-17E (R&D Systems Cat#1258-IL/CF) (human, UniProt Q9H293 33-177).
T4 construct: also called huIL-17E; hu IL-17E
T4 sequence (looked up): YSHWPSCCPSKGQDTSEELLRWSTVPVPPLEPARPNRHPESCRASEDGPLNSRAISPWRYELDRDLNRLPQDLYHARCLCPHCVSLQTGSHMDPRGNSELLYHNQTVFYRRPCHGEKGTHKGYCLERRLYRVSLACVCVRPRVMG
The experiment can be described thus: ELISA, coated antigen, Ab 1 µg/ml.

Experiment [5] has as its target T1, recombinant human IL-17F (SEQ ID NO: 77). Nature of the experiment: ELISA, coated cytokine, Ab 10 µg/ml.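 Further: antibodies incubated 3 h at room temperature on the coated wells, binding detected with alkaline phosphatase-conjugated anti-IgG secondary antibodies matching the species of each test antibody.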
Experiment [6] deals with T2, human IL-17A (construct not stated). The experiment can be described thus: cell-based or functional assay. This is another data set of the same source.
The target in experiment [7] is T5, recombinant human IL-17A (SEQ ID NO: 78) (human, UniProt Q16552 24-155, limits assumed).
T5 construct: homodimer; also called huIL-17A; hulL-17A
T5 sequence: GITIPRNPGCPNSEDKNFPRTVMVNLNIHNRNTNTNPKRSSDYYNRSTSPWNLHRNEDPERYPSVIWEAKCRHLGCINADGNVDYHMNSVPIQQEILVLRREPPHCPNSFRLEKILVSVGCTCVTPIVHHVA
The experiment can be described thus: SPR (Biacore), captured antibody, antigen as analyte.

Experiment [8] addresses T6, recombinant human IL-17A/F heterodimer (human, UniProt Q16552 24-155; Q96PD4 31-163, limits assumed).
T6 construct: heterodimer of an IL-17A subunit and an IL-17F subunit; also called huIL-17A/F; rhuIL-17A/F
T6 sequence (looked up) 1: T5 sequence
T6 sequence (looked up) 2: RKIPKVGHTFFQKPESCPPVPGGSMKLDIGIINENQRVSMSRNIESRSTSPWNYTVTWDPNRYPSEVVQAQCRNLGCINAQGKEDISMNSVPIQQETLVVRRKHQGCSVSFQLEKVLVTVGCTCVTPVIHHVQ
Described as above.

Experiment [9] concerns the target T7, recombinant cynomolgus IL-17A (SEQ ID NO: 79) (cynomolgus monkey, UniProt Q16552 24-155 (human entry), limits assumed).
T7 construct: also called cynoIL-17A; cyno IL-17A
T7 chain: T5 sequence with T3A, P8S, N34S, I77V, N78K, P104R
The experiment is described as above.

The target in experiment [10] is T8, recombinant mouse IL-17A (SEQ ID NO: 83) (mouse, UniProt Q62386 26-158).
T8 construct: also called mIL-17A; rmIL-17A
T8 sequence: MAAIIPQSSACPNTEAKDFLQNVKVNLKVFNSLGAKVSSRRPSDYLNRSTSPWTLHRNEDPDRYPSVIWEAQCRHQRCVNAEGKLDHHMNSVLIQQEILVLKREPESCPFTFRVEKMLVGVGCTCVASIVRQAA
Described as above.

The target of experiment [11] is T9, recombinant mouse IL-17A/F (R&D Systems Cat#5390-IL) (mouse, UniProt Q62386 26-158; Q7TNI7 29-161, limits assumed).
T9 construct: bought heterodimer; also called mIL-17A/F; rmIL-17A/F
T9 sequence (looked up) 1: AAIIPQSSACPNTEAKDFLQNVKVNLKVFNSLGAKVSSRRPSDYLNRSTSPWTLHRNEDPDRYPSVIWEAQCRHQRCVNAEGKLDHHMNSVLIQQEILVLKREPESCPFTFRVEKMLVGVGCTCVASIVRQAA
T9 sequence (looked up) 2: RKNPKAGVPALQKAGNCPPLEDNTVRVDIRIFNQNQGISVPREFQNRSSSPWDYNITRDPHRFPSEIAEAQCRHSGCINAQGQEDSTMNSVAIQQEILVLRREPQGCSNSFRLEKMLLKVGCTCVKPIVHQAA
Described as above.

Experiment [12] deals with T10, recombinant rat IL-17A (SEQ ID NO: 85) (rat, UniProt Q61453 18-150).
T10 construct: also called rratIL-17A; rIL-17A
T10 sequence: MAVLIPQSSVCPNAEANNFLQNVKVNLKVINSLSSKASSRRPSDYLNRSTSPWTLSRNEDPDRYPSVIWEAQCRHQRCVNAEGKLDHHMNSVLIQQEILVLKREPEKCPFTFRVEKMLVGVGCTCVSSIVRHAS
Described as above.

Positions count from the first letter of the chain named. Names and notes keep the numbering of the source.

B1: XAB4 (antibody, human IgG1, kappa, V domains shown)
VH: EVQLVESGGDLVQPGGSLRLSCAASGFTFSSYWMSWVRQAPGKGLEWVANIKQDGSEKYYVDSVKGRFTISRDNAKNSLYLQMNSLRAEDTAVYYCARDRGSLYYWGQGTLVTVSS
VL: AIQLTQSPSSLSASVGDRVTITCRPSQGINWELAWYQQKPGKAPKLLIYDASSLEQGVPSRFSGSGSGTDFTLTISSLQPEDFATYYCQQFNSYPLTFGGGTKVEIKR
notes: also called MB435 N56Q
On to B1, for which, in [1], the binding result is “no binding (tested: 1 µg/ml)”. For the same molecule, in [2], the “EC50, in vitro neutralization activity, T = 0 weeks” value was 0.048 µg/mL. Also, the “EC50, in vitro neutralization activity, T = 4 weeks at pH 8, 40°C (forced deamidation)” value in experiment [2] was 47 ng/ml. Further, the O.D. in [3] turned out to be 0.034 O.D; in experiment [4], 0.035 O.D; in experiment [5], 0.035 O.D.

B2: XAB1 (antibody, human IgG1, kappa, V domains shown)
VH: B1 VH
VL: B1 VL with N30I, W31S, E32A, Q56N
notes: human IgG1/kappa monoclonal antibody; also called parental XAB1; XAB1 IgG
What is called Kd is the free concentration of one partner at which half of the binding sites on the other are occupied at equilibrium, for simple one-to-one binding. By koff is commonly meant a measure of how fast the partners let go of each other. Regarding B2, the “IC50, in vitro neutralization, Hu IL-6 sec” value in [6] was 4 nM. Moreover, in experiment [6], the “IC50, in vitro neutralization, Hu IL-8 sec” value was 3 nM. In addition, the O.D. in experiment [3] stood at 0.031 O.D; in experiment [4], 0.033 O.D. For the same molecule, the Kd in experiment [7] turned out to be 0.0403 nM; in experiment [8], 1.48 nM; in experiment [9], 0.526 nM; in experiment [10], 0.353 nM; in experiment [11], 5.09 nM; in experiment [12], 0.301 nM. Besides, the off-rate (koff) amounted to 9.39e-05 s⁻¹ in [7]; 0.00134 s⁻¹ in experiment [8]; 0.000113 s⁻¹ in experiment [9]; 0.000143 s⁻¹ in [10]; 0.000955 s⁻¹ in experiment [11]; 0.000164 s⁻¹ in experiment [12].

(Values after US20180194839A1 (Novartis, published 2018).)
